# Data: US20220048967A1 (published 2022)
# Changes are numbered by the printed parent chain.
# T1: human gastric inhibitory peptide receptor (GIPR) (human, UniProt P48546 22-466)
# T1 sequence (looked up): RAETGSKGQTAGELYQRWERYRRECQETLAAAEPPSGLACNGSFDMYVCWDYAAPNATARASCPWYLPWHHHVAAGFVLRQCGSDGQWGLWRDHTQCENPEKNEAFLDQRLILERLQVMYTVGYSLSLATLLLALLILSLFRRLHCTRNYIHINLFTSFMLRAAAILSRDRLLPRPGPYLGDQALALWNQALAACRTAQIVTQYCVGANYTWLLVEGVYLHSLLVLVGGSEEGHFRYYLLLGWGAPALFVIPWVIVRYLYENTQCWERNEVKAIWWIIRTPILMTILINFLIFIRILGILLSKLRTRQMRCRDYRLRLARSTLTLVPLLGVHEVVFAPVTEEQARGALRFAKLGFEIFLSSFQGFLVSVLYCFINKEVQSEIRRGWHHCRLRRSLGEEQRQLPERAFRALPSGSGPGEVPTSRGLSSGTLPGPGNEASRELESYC
# B1: Example 360 (peptide)
# peptide: XXEGTFTSDYSIXLDXKAQXAFVEYLIEGGPSSGAPPPS
# modifications: D-Tyr1; Aib2; αMeL13; Orn16; K17 conjugated to (2-[2-(2-Amino-ethoxy)-ethoxy]-acetyl)2-(γ-Glu)-CO-(CH2)18-CO2H; Aib20; C-terminal amide
# B2: Example 366 (peptide)
# peptide: B1 peptide with V23I, Y25X, E28A
# modifications: D-Tyr1, Aib2, αMeL13, Orn16, K17 conjugated to (2-[2-(2-Amino-ethoxy)-ethoxy]-acetyl)2-(γ-Glu)-CO-(CH2)18-CO2H, Aib20, αMeY25, C-terminal amide (NH2)
# B3: Example 368 (peptide)
# peptide: B1 peptide with A21E, V23I, E28A
# modifications: D-Tyr1, Aib2, αMeL13, Orn16, K17 conjugated to (2-[2-(2-Amino-ethoxy)-ethoxy]-acetyl)2-(γ-Glu)-CO-(CH2)16-CO2H, Aib20, C-terminal amide (NH2)
# B4: Example 365 (peptide)
# peptide: B1 peptide with X16K, V23I, Y25X, E28A
# modifications: D-Tyr1; Aib2; αMeL13; K17 conjugated to (2-[2-(2-Amino-ethoxy)-ethoxy]-acetyl)2-(γ-Glu)-CO-(CH2)18-CO2H; Aib20; αMeY25; C-terminal amide
# B5: Example 371 (peptide)
# peptide: B1 peptide with A21E, V23I, E28A
# modifications: D-Tyr1; Aib2; αMeL13; Orn16; K17 conjugated to (2-[2-(2-Amino-ethoxy)-ethoxy]-acetyl)-(γ-Glu)-CO-(CH2)18-CO2H; Aib20; C-terminal amide
# B6: Example 364 (peptide)
# peptide: B1 peptide with E24X, E28A
# modifications: D-Tyr1; Aib2; αMeL13; Orn16; K17 conjugated to (2-[2-(2-Amino-ethoxy)-ethoxy]-acetyl)2-(γ-Glu)-CO-(CH2)16-CO2H; Aib20; D-Glu24; C-terminal amide
# B7: Example 362 (peptide)
# peptide: B1 peptide with E24X, E28A
# modifications: D-Tyr1; Aib2; αMeL13; Orn16; K17 conjugated to (2-[2-(2-Amino-ethoxy)-ethoxy]-acetyl)2-(γ-Glu)-CO-(CH2)18-CO2H; Aib20; D-Glu24; C-terminal amide
# B8: Example 376 (peptide)
# peptide: B1 peptide with X16K, V23I, Y25X, E28A
# modifications: D-Tyr1, Aib2, αMeL13, K17 conjugated to (2-[2-(2-Amino-ethoxy)-ethoxy]-acetyl)2-(γ-Glu)-CO-(CH2)16-CO2H, Aib20, αMeY25, C-terminal amide (NH2)
# B9: Example 375 (peptide)
# peptide: B1 peptide with A21E, V23I, Y25X, E28A
# modifications: D-Tyr1, Aib2, αMeL13, Orn16, K17 conjugated to (2-[2-(2-Amino-ethoxy)-ethoxy]-acetyl)2-(γ-Glu)-CO-(CH2)16-CO2H, Aib20, αMeY25, C-terminal amide (NH2)
# B10: Example 363 (peptide)
# peptide: B1 peptide with V23I, E24X, E28A
# modifications: D-Tyr1; Aib2; αMeL13; Orn16; K17 conjugated to (2-[2-(2-Amino-ethoxy)-ethoxy]-acetyl)2-(γ-Glu)-CO-(CH2)16-CO2H; Aib20; D-Glu24; C-terminal amide
# B11: Example 369 (peptide)
# peptide: B1 peptide with A21D, V23I, E28A
# modifications: D-Tyr1; Aib2; αMeL13; Orn16; K17 conjugated to (2-[2-(2-Amino-ethoxy)-ethoxy]-acetyl)2-(γ-Glu)-CO-(CH2)18-CO2H; Aib20; C-terminal amide
# B12: Example 371 (peptide)
# peptide: B1 peptide with A21E, V23I, E28A
# modifications: D-Tyr1, Aib2, αMeL13, Orn16, K17 conjugated to (2-[2-(2-Amino-ethoxy)-ethoxy]-acetyl)-(γ-Glu)-CO-(CH2)18-CO2H, Aib20, C-terminal amide (NH2)
# B13: Example 366 (peptide)
# peptide: B1 peptide with V23I, Y25X, E28A
# modifications: D-Tyr1; Aib2; αMeL13; Orn16; K17 conjugated to (2-[2-(2-Amino-ethoxy)-ethoxy]-acetyl)2-(γ-Glu)-CO-(CH2)18-CO2H; Aib20; αMeY25; C-terminal amide
# B14: Example 369 (peptide)
# peptide: B1 peptide with A21D, V23I, E28A
# modifications: D-Tyr1, Aib2, αMeL13, Orn16, K17 conjugated to (2-[2-(2-Amino-ethoxy)-ethoxy]-acetyl)2-(γ-Glu)-CO-(CH2)18-CO2H, Aib20, C-terminal amide (NH2)
# B15: Example 373 (peptide)
# peptide: B1 peptide with X16K, V23I, Y25X, E28A
# modifications: D-Tyr1, Aib2, αMeL13, K17 conjugated to (2-[2-(2-Amino-ethoxy)-ethoxy]-acetyl)-(γ-Glu)-CO-(CH2)18-CO2H, Aib20, αMeY25, C-terminal amide (NH2)
# B16: Example 377 (peptide)
# peptide: B1 peptide with V23I, Y25X, E28A
# modifications: D-Tyr1, Aib2, αMeL13, Orn16, K17 conjugated to (2-[2-(2-Amino-ethoxy)-ethoxy]-acetyl)2-(γ-Glu)-CO-(CH2)16-CO2H, Aib20, αMeY25, C-terminal amide (NH2)
# B17: Example 368 (peptide)
# peptide: B1 peptide with A21E, V23I, E28A
# modifications: D-Tyr1; Aib2; αMeL13; Orn16; K17 conjugated to (2-[2-(2-Amino-ethoxy)-ethoxy]-acetyl)2-(γ-Glu)-CO-(CH2)16-CO2H; Aib20; C-terminal amide
# B18: Example 380 (peptide)
# peptide: B1 peptide with A21E, V23I, Y25X
# modifications: D-Tyr1, Aib2, αMeL13, Orn16, K17 conjugated to (2-[2-(2-Amino-ethoxy)-ethoxy]-acetyl)2-(γ-Glu)-CO-(CH2)18-CO2H, Aib20, αMeY25, C-terminal amide (NH2)
# B19: Example 378 (peptide)
# peptide: B1 peptide with X16K, A21E, V23I, E28A
# modifications: D-Tyr1, Aib2, αMeL13, K17 conjugated to (2-[2-(2-Amino-ethoxy)-ethoxy]-acetyl)-(γ-Glu)-CO-(CH2)18-CO2H, Aib20, C-terminal amide (NH2)
# B20: Example 379 (peptide)
# peptide: B1 peptide with X16K, A21E, V23I, Y25X
# modifications: D-Tyr1, Aib2, αMeL13, K17 conjugated to (2-[2-(2-Amino-ethoxy)-ethoxy]-acetyl)2-(γ-Glu)-CO-(CH2)18-CO2H, Aib20, αMeY25, C-terminal amide (NH2)
# B21: Example 361 (peptide)
# peptide: B1 peptide with X16K, E24X, E28A
# modifications: D-Tyr1; Aib2; αMeL13; K17 conjugated to (2-[2-(2-Amino-ethoxy)-ethoxy]-acetyl)2-(γ-Glu)-CO-(CH2)18-CO2H; Aib20; D-Glu24; C-terminal amide
# B22: Example 381 (peptide)
# peptide: B1 peptide with X16E, V23I, Y25X, E28A
# modifications: D-Tyr1, Aib2, αMeL13, K17 conjugated to (2-[2-(2-Amino-ethoxy)-ethoxy]-acetyl)2-(γ-Glu)-CO-(CH2)18-CO2H, Aib20, αMeY25, C-terminal amide (NH2)
# B23: Example 365 (peptide)
# peptide: B1 peptide with X16K, V23I, Y25X, E28A
# modifications: D-Tyr1, Aib2, αMeL13, K17 conjugated to (2-[2-(2-Amino-ethoxy)-ethoxy]-acetyl)2-(γ-Glu)-CO-(CH2)18-CO2H, Aib20, αMeY25, C-terminal amide (NH2)
# B24: Example 370 (peptide)
# peptide: XXEGTFTSDYSIXLDXKAQXEFIEYLIAGGPSSG
# modifications: D-Tyr1; Aib2; αMeL13; Orn16; K17 conjugated to (2-[2-(2-Amino-ethoxy)-ethoxy]-acetyl)2-(γ-Glu)-CO-(CH2)18-CO2H; Aib20; C-terminal amide
# B25: Example 370 (peptide)
# peptide: B24 peptide
# modifications: D-Tyr1, Aib2, αMeL13, Orn16, K17 conjugated to (2-[2-(2-Amino-ethoxy)-ethoxy]-acetyl)2-(γ-Glu)-CO-(CH2)18-CO2H, Aib20, C-terminal amide (NH2)
# B26: Example 367 (peptide)
# peptide: YXEGTFTSDYSIXLDKKAQXEFIEXLIAGGPSSGAPPPS
# modifications: Aib2; αMeL13; K17 conjugated to (2-[2-(2-Amino-ethoxy)-ethoxy]-acetyl)2-(γ-Glu)-CO-(CH2)18-CO2H; Aib20; αMeY25; C-terminal amide
# B27: Example 367 (peptide)
# peptide: B26 peptide
# modifications: Aib2, αMeL13, K17 conjugated to (2-[2-(2-Amino-ethoxy)-ethoxy]-acetyl)2-(γ-Glu)-CO-(CH2)18-CO2H, Aib20, αMeY25, C-terminal amide (NH2)
# B28: Example 374 (peptide)
# peptide: B26 peptide with Y1X
# modifications: D-Tyr1, Aib2, αMeL13, K17 conjugated to (2-[2-(2-Amino-ethoxy)-ethoxy]-acetyl)2-(γ-Glu)-CO-(CH2)16-CO2H, Aib20, αMeY25, C-terminal amide (NH2)
# B29: Example 372 (peptide)
# peptide: B26 peptide with Y1X
# modifications: D-Tyr1, Aib2, αMeL13, K17 conjugated to (2-[2-(2-Amino-ethoxy)-ethoxy]-acetyl)-(γ-Glu)-CO-(CH2)18-CO2H, Aib20, αMeY25, C-terminal amide (NH2)
# Key:
# Assay in all cases: cell-based or functional assay
# [1] = target: T1, human gastric inhibitory peptide …
# [2] = target: human GLP-1 receptor (GLP-1R) (human, UniProt P43220 24-463)
# [3] = target: human GLP-1 receptor (human, UniProt P43220 24-463)
# [4] = target: Pro-Link-tagged Human GLP-1R (human, UniProt P43220 24-463)
# Throughout, for hGIPR cAMP EC50 ratio: reference of the scale not given here.
# Throughout, for hGLP1R B-Arrestin2 % Top: reference of the scale not given here.
# Throughout, for hGLP1R GTPgS % Top: reference of the scale not given here.
# Throughout, for hGLP1R cAMP EC50 ratio: reference of the scale not given here.
Binder,hGIPR cAMP EC50 ratio [1],hGIPR cAMP Rel EC50 [1],hGLP1R cAMP EC50 ratio [2],hGLP1R cAMP Rel EC50 [2],hGLP1R GTPgS % Top [3],hGLP1R GTPgS Rel EC50 [3],hGLP1R B-Arrestin2 % Top [4],hGLP1R B-Arrestin2 Rel EC50 [4]
B1,0.53 ratio,0.197 nM,0.171 ratio,0.145 nM,,,,
B2,,,,,67.6%,0.409 nM,21.2%,5.57 nM
B3,,,,,68.9%,0.495 nM,21.3%,47.9 nM
B4,0.784 ratio,0.0678 nM,0.155 ratio,0.175 nM,,,,
B5,0.393 ratio,0.135 nM,0.206 ratio,0.132 nM,,,,
B6,0.347 ratio,0.351 nM,0.0303 ratio,1 nM,,,,
B7,0.347 ratio,0.302 nM,0.0805 ratio,0.365 nM,,,,
B8,,,,,72.6%,0.326 nM,25.6%,12.3 nM
B9,,,,,70.4%,0.419 nM,24.2%,11.4 nM
B10,0.835 ratio,0.145 nM,0.146 ratio,0.208 nM,,,,
B11,0.499 ratio,0.166 nM,0.319 ratio,0.101 nM,,,,
B12,,,,,62.5%,0.27 nM,21.7%,14.2 nM
B13,0.598 ratio,0.0889 nM,0.074 ratio,0.366 nM,,,,
B14,,,,,58.8%,0.381 nM,19.9%,41.4 nM
B15,,,,,65.6%,0.336 nM,22.9%,9.54 nM
B16,,,,,68.4%,0.356 nM,16.7%,5.32 nM
B17,0.109 ratio,0.0757 nM,0.299 ratio,0.108 nM,,,,
B18,,,,,66.8%,0.188 nM,35%,13.7 nM
B19,,,,,68.6%,0.359 nM,,> 10200 nM
B20,,,,,71%,0.239 nM,31.9%,18.1 nM
B21,0.261 ratio,0.401 nM,0.0259 ratio,0.955 nM,,,,
B22,,,,,73.6%,0.273 nM,25.8%,15.5 nM
B23,,,,,66.9%,0.464 nM,20.8%,7.03 nM
B24,0.704 ratio,0.117 nM,0.172 ratio,0.186 nM,,,,
B25,,,,,63.7%,0.428 nM,23%,9.9 nM
B26,5.85 ratio,0.0179 nM,0.386 ratio,0.0641 nM,,,,
B27,,,,,89.7%,0.289 nM,70.6%,6.66 nM
B28,,,,,67.1%,0.345 nM,34.7%,21.8 nM
B29,,,,,69.1%,0.379 nM,32.9%,9.81 nM
